Residue numbers refer to the chain shown, from its start.
T1: TR10 (human, UniProt Q9UBN6 56-211, limits assumed)
T1 construct: The construct coated in the specificity phage ELISA is not described; also called TRAIL-R4; DcR2
T1 sequence: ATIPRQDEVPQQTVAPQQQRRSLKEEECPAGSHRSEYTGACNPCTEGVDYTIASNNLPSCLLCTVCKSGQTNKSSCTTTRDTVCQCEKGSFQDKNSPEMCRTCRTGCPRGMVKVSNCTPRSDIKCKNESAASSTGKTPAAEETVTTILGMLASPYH

T2: TR4-Fc fusion protein (human, UniProt O00220 109-240)
T2 construct: also called TR4:Fc receptor; not shown: Fc region
T2 chain: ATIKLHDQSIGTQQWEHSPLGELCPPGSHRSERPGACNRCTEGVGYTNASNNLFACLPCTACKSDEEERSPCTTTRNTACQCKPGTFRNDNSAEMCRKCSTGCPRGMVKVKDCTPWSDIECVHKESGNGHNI

B1: scFv T1014A04 (scFv)
scFv: EVQLVQSGADVKRPGASVKVSCKISGDSFNAYFIHWVRQAPGQGLEWMGWFNPDSGTADSAQKFHGRVTMTRDTSSSTAFLELSRLRSDDTAVYYCVRQHRGNTFAPWGRGTMVTVSSGGGGSGGGGSGGGGSAQSVLTQPPSASGSPGQSVTISCTGTTSDVGGYNYVSWYQQHPGKAPKLMIYGVNQRPSGVPDRFSGSKSGNTASLTVSGLQAEDEADYYCSSYAGSNNWVFGGGTKLTVLG
B2: scFv T1014B11 (scFv)
scFv: EVQLVQSGAEVKKPGASVKVSCKISGDSFTAYFIHWLRQAPGEGLEWMGWFNPISGTAGSPQKFHGRVAMTRDTSISTAYMELTRLASDDTAIYYCARQHHSNTFDPWGQGTLVTVSSGGGGSGGGGSGGGGSAQSALTQPASVSGSPGQSITISCTGTNSDVGGYNYVSWYQQHPGKAPKLMIYEVNNRPSGVSNRFSGSKSGNTASLTISGLQADDEADYYCSSYTTSNTWVFGGGTKLTVLG
B3: scFv T1014G03 (scFv)
scFv: EVQLVQSGAEVKMPGASVKLSCRVSGDTFTAYFIHWVRQAPGQGLEWMGWFNPISGTAGSAEKFRGRVAMTRDTSISTAYMELNRLTFDDTAVYYCARQHRGNTFDPWGQGTLVTVSSGGGGSGGGGSGGGGSAQSALTQPASVSGSPGQSITISCTGTSSDIGAYKYVSWYQQHPGKAPKLVIYEVSNRPSGVSSRFSGSKSGQTASLTISGLQADDEADYYCNSYQGYNTWVFGGGTKVTVLG
B4: scFv T1014F08 (scFv)
scFv: EVQLVQSGAEVKKPGASVKLSCRVSGDTFTAYFIHWVRQAPGQGPEWMGWFNPISGTAGSAARFRGRVAMTRDTSISTAYMELNRLTFDDTAVYYCARQHRGNTFDPWGKGTLVTVSSGGGGSGGGGSGGGGSALPVLTQPPSASGSPGQSVTISCTGTSSDVGGYKYVSWYQQHPGKAPKLMIYEVSMRPSGVPDRFSGSKSGNTASLTVSGLQAEDEADYYCASYAGSNNWVFGGGTKLTVLG
B5: scFv T1014G04 (scFv)
scFv: EVQLVQSGADVKRPGASVKVSCKISGDSFTAYFIHWVRQAPGQGLEWMGWFNPDSGTADSAQKFHGRVTMTRDTSSSTAFLELSRLRSDDTAVYYCVRQHRGNTFAPWGRGTLVTVSSGGGGSGGGGSGGGGSAQPVLTQPPSASGSPGQSVTISCTGTSSDVGSYEYVSWYQQHPGKAPRLMISEVNKRPSGVPNRFSGSKSGNTASLTVSGLQADDEADYYCSSYAGSNNWVFGGGTKVTVLG
B6: IgG1 antibody comprising the VH and VL domains of the T1014G03 scFv (antibody, V domains shown)
VH: EVQLVQSGAEVKMPGASVKLSCRVSGDTFTAYFIHWVRQAPGQGLEWMGWFNPISGTAGSAEKFRGRVAMTRDTSISTAYMELNRLTFDDTAVYYCARQHRGNTFDPWGQGTLVTVSS
VL: QSALTQPASVSGSPGQSITISCTGTSSDIGAYKYVSWYQQHPGKAPKLVIYEVSNRPSGVSSRFSGSKSGQTASLTISGLQADDEADYYCNSYQGYNTWVFGGGTKVTVLG
notes: Whole IgG1
B7: IgG1 antibody comprising the VH and VL domains of the T1014A04 scFv (antibody, V domains shown)
VH: EVQLVQSGADVKRPGASVKVSCKISGDSFNAYFIHWVRQAPGQGLEWMGWFNPDSGTADSAQKFHGRVTMTRDTSSSTAFLELSRLRSDDTAVYYCVRQHRGNTFAPWGRGTMVTVSS
VL: QSVLTQPPSASGSPGQSVTISCTGTTSDVGGYNYVSWYQQHPGKAPKLMIYGVNQRPSGVPDRFSGSKSGNTASLTVSGLQAEDEADYYCSSYAGSNNWVFGGGTKLTVLG
notes: Whole IgG1; also called IgG1 format of T1014A04
B8: IgG1 antibody comprising the VH and VL domains of the T1014G04 scFv (antibody, V domains shown)
VH: B7 VH with N30T, M113L
VL: QPVLTQPPSASGSPGQSVTISCTGTSSDVGSYEYVSWYQQHPGKAPRLMISEVNKRPSGVPNRFSGSKSGNTASLTVSGLQADDEADYYCSSYAGSNNWVFGGGTKVTVLG
notes: Whole IgG1; also called T14G04

target: BLyS (human, UniProt Q9Y275 134-285); assay: specificity phage ELISA, antigen coated at 1 ug/ml, anti-M13-HRP detection
Procedure: (§1) Flexible 96-well plates (Falcon) were coated overnight at 4° C. with each antigen (1 μg/ml). All antigens were coated in PBS. After coating, the solutions were removed from the wells, and the plates were blocked for 1 hour at room temperature in MPBS. The plates were washed 3 times with PBS and then 50 μl of pre-blocked phage was added to each well. The plates were incubated at room temperature for 1 hour and then washed with 3 changes of PBST followed by 3 changes of PBS.
(§2) To each well, 50 μl of an anti-M13-HRP conjugate (Pharmacia) at a 1 in 5000 dilution in MPBS was added and the plates incubated at room temperature for 1 hour. Each plate was washed three times with PBST followed by three times with PBS.
(§3) Fifty μl of TMB substrate was then added to each well, and incubated at room temperature for 30 minutes or until colour development. The reaction was stopped by the addition of 25 μl of 0.5 M H₂SO₄. The signal generated was measured by reading the absorbance at 450 nm (A₄₅₀) using a microtitre plate reader (Bio-Rad 3550).

Row | binding result | Binder
1 | no binding | B1
2 | no binding | B2
3 | no binding | B3
4 | no binding | B4
5 | no binding | B5

target: T3, TR7 (human, UniProt O14763 52-184); assay: as above
T3 construct: The construct coated in the specificity phage ELISA is not described; also called TRAIL-R2; DR5
T3 sequence (O14763 52-184 limits assumed): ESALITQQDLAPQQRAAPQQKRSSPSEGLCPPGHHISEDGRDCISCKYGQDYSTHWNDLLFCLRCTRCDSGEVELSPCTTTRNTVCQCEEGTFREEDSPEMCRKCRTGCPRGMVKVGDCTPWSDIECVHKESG
Procedure: as §1, §2, §3

Row | binding result | Binder
6 | no binding | B1
7 | no binding | B2
8 | no binding | B3
9 | no binding | B4
10 | no binding | B5

target: T1, TR10; assay: as above
Procedure: as §1, §2, §3

Row | binding result | Binder
11 | no binding | B1
12 | no binding | B2
13 | no binding | B3
14 | no binding | B4
15 | no binding | B5

Target: T2, TR4-Fc fusion protein
Assay: SPR (BIAcore 2000), TR4:Fc amine-coupled on CM5 chip, IgG1 as analyte 0.75-65 nM, TR2:Fc control cell, double reference subtraction, 1:1 Langmuir fit, 25 C
Procedure: The optimal pH for this coupling was analyzed using preconcentration experiments ranging from pH 4-7 and was determined to be pH 4.0 for both the TR4 and the TR2 receptor. Amine coupling was used to covalently bind each receptor (fc) to the dextran matrix on the CM5 sensor chip. The immobilization experiment was performed using the manual injection mode. The entire immobilization experiment was performed at 5 μL/min. A 3-minute injection of EDC/NHS (1:1) was applied to each flow cell to active esters. A target level of ˜200RU was set as the goal for all each flow cell. Fc-fusion receptors, TR4 and TR2 at 5 μg/mL, were immobilized onto individual flow cells of a sensor chip. The amount applied varied from 8-14 μL. A 3-minute ethanolamine injection completed the immobilization experiment by inactivating the esters.
The kinetics cycles were performed as follows: The flow rate for the entire cycle was 25 μL/minute with the flow path including both the control (TR2) and experimental (TR4) flow cell at all times. A 1-minute buffer injection was applied to stabilize the baseline. The purified antibody (IgG1 antibody comprising the VH and VL domains of each of the T1014A04, T1014G03, T1014F08, and T14G04 scFvs) was diluted from 10 μg/mL (65 nM) to 0.115 μg/mL (0.75 nM) in running buffer and tested in duplicate. Each concentration was in contact with the control (TR2) and the experimental (TR4) flow cell during a 4-minute association and a 10-minute dissociation phase. Regeneration was performed using 25 mM NaOH from 5-12 μL depending on the sample concentration.
A double-reference subtraction was performed, which refers to the control flow cell subtraction for every cycle, in addition to a buffer cycle subtraction. The 1:1 Langmuir model was used for all evaluation fitting.

Row | Kd [nM] | Binder
16 | 0.554 | B6
17 | 0.468 | B7
18 | 0.194 | B8
